Source: article PMC5173319, “Crenactin forms actin-like double helical filaments regulated by arcadin-2” (eLife, 2016)

What was measured:
[1] = target: Pyrobaculum calidifontis arcadin-1 (Pyrobaculum calidifontis); experiment: AUC; sedimentation equilibrium, arcadin-1 at 49.8, 99.5 and 199 µM, 7800, 11800 and 15,000 rpm, 20°C, 25 mM Tris-HCl pH 8.0, 100 mM NaCl, 1 mM EDTA; idealised single-species model
[2] = target: Pyrobaculum calidifontis crenactin (Pyrobaculum calidifontis) (UniProt A3MWN5); experiment: SPR; crenactin immobilised by amide coupling on CM5 chip (~2300 RU), Biacore T200, PBS-0.005% Tween 20, 20°C; arcadin-1 in 1:3 dilution series from 36.7 µM; equilibrium response fitted to a single site model
Chain of Pyrobaculum calidifontis crenactin (Pyrobaculum calidifontis) (A3MWN5 whole entry): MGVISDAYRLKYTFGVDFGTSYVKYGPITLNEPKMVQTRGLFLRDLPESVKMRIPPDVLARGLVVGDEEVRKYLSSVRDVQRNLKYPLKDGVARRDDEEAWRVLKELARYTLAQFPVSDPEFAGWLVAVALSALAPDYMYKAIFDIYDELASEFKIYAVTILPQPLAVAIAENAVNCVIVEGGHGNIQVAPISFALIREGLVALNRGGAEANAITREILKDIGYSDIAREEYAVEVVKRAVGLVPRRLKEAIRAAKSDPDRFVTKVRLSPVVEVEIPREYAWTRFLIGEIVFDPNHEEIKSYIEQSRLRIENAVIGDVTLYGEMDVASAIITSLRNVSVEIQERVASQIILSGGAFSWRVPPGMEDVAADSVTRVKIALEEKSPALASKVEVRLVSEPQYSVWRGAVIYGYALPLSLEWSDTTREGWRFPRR

stoichiometry N [1]: 8 | Kd [2]: 15 µM
Substance: Pyrobaculum calidifontis arcadin-1 (natural protein)
